The values below come from the nanobody polyreactivity screen of Harvey et al. (2022).

This data set can be described thus: yeast display, Sf9 membrane polyspecificity reagent, FACS + sequencing; frameworks hold sequencing errors. Put shortly: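 Using colony PCR, genes from sorted yeast display clones were amplified, then sequenced on MiSeq at 2 × 250 and filtered by CDR length. The clones had been stained with 10% biotinylated, detergent-solubilized Sf9 membrane reagent for 1 hour at 4 °C and sorted by FACS into low and high (top ~1%) gates on anti-HA and streptavidin fluorescence. Polyreactivity labels come from the gate of origin.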
Take “QVQLVESGGGLVQAGGSLRLSCAASGRTFYAYAMGWYRQAPGKERELVAAISSGGSTYYADSVKGRFTISRDNAKNTVYLQMNSLKPEDTAVYYCNAGYYQWPFSGYDYWGQGTQVTVSS”: the “polyreactivity (PSR sort gate)” value is reported as “low polyreactivity”.
With “QVQLVESGGGLVQAGGSLRLSCAASGSNFIWYVMGWYRQAPGKEREFVAAINWRGTSTYYADSVKGRFTISRDNAKNTVYLQMNSLKPEDTAVYYCAARVTYRGRAYDYWGQGTQVTVSS” the entry was “high polyreactivity”; with “QVQLVESGGGLVQAGGSLRLSCAASGRIFRVYAMGWYRQAPGKERELVAAISSGGSTNYADSVKGRFTISRDNANNTVYLQMNSLKPEDTAVYYCAATVRGVGYRYYYWGQGTQVTVSS”, “high polyreactivity”.
With “QVQLVESGGGLDQAGGSLRLSCAASGSIFGSYTMGWYRQAPGKERQLVAVINWSGDRTYYADSVKGRFTISRDNAKNTVYLQMNSLKPEDTAVYYCAARERAGYSRIRYNYWGQGTQGTVSS” the entry was “high polyreactivity”; with “EEELVESGGGLVQAGGSLRLSCSASGSTFLVYSMGWYRQAPGKERELVAVITNSTVRTYYADSVKGRFTISRDNAKNTVYLQMDRLKPEDTAVYYCNADKEFAVLGQGMDYWGQGTQVTVSS”, “low polyreactivity”.
With “QVQLVESGVGLFQAGGSLRLSCAPSGSTFIGYAMEWYRQAPGKERELVAAISWSGGRTYYADSVKGRFTISRDNAKNTVYLQMISLKPEDTAVYYCNTVPYRISVQFNYWGQGTQVTLSS” the entry was “high polyreactivity”.
For the sequence “QVQLVESGGGLVQAGGSLRFSCAASGSIFQHYAMGWYRQAPGKERELVAAISWSGGSTYYADSVKGRFSISRDNAKNTVYLQMNSLKPEDTAVYYCAATKRRFVKFDYWGQGTQVTVSS”, the “polyreactivity (PSR sort gate)” value is reported as “low polyreactivity”.
The value for “QDQLVESVGGLVQAGGSLRLSCAASGLIFSRNVMGWYRQGPGTERELVAAITRSGGSTYYADSVKGRFTISRDNAKNTVYLQMNSLKPVDTAVYYCAASRFNYVYLLKGDYWGQGTQVTVSS” was “high polyreactivity”.
As for “QVQLVDSGGGLVQAGGSLRLSCAASGSTFLAYAMGSSRQAPGKQTELVAAITWNSCSSTFYADSVKGRFTISRDNAKNSVYLQMNSLKPEDTAVYYCNADVPSPAYYGDGTPYREDNYWGQGTQVTVSS”, the “polyreactivity (PSR sort gate)” value was “low polyreactivity”.
The value for “QVQHVESGGGLVQAGGSLRLSCAASGIIFIVYAMGWYRQAPGKERELVAAISNGGSTYYADSVKGRFTISRDNAKNTVYLQMNSLKPEDTAVYYCAAGGALASQWSKKLYDYWGQGTQVTVSS” was “low polyreactivity”.
The value for “QVQLVESGGGLVQAGGSLRLSCAASGSIYYNAMGWYRQAPGKERELVAAISTSGGTTYYADSVKGRFTISRDNAKNTVYLQMNSLKPEDTAVYYCNARPSRRGAFDYWGQGTQVTVSS” was “high polyreactivity”; that for “QVQLVESGGGLVQAGGSLRLRCAASGLTFTGNAMGWYRQAPGKEREFVAAIRWSAGSTYYADSVKARFTISRDNAKNTVYLHMNSLKPEDTAVYYCKAALNVSGHYTNDSWGQGTQVTLSS” was “low polyreactivity”.
The value for “QVQLVESGGGLVQAGGSLRLSCAASGRTITYYAMGWYRQAPGKERELVAAITWSGGSTYYADSVKGRFTISRDNAKNTVYLQMNSLKPEDTAVDYCAKEFYYSSGFDYWGQGTQVTVSS” was “low polyreactivity”; that for “QVQLVESGGGLVQAGGRLRLSSAASGRTFYPNAMGWYRKAPLKERELVAAISGSGGSTYYADSVKGRFTISRDNAKNTVYLQMNSLKPEDTAVYYCAAYPEYLVGYRYGSWGQGTQVTVSS” was “high polyreactivity”.
For “QDQHVESGGGLVQAGGSLRLSCAASGFTFPLKAMGWSRQAPGKERELVAVINYSDGSTYYADSVKGRFSISRDNAKNTVYLQMNSLTPEDTAVYYCAARYYTTYYWGQGTQVTVSS”, the “polyreactivity (PSR sort gate)” value is “high polyreactivity”.
With “QVQLVDSGGGLVQAGGRLRLSCAASGFTFPSNAMGWYRKAPGKERQLVASINQRGGSTYYADSVKGRFTISRDNAKNTVYLQMNSLKPEDTAVYYCAAGPTSRRWYDYWGQGTQVTVSS”, the “polyreactivity (PSR sort gate)” value is “high polyreactivity”.
On to “QVQLVESGGGLVQAGGSLRLSCAASGRTFPVYAMGWYRQAPGKERELVAGITGSGGRTYYADSVKGRFTISRDNAKNTVYLQMNSLKPEDTAVYYCAADRNLYWYQHEYCGQGTQVTVSS”, for which the “polyreactivity (PSR sort gate)” value was “low polyreactivity”.
With “QVQLVESGGGLVQAGGSLRLSCAASGLIFAWYAMGWYRQAPGKERELVAAITGTGSSTYYADSVKGRFTISRDNAKNTVYLQMNSLKPEDTAVYYCNRGYFNSRTPTFDYWGQGTQVTVSS” the entry was “low polyreactivity”.
The value for “QVQLVESGGGLDQAGGSLRLSCAAYGGTLYYNAMGWYRQAPGKEREFVAAISSRGGRTYYADSVKGRFTISRDNAKNTVYLQMNSLKPEDTAVYYCAGSRTGRTYPSNRMYYWGQGTQVSVSS” was “high polyreactivity”; that for “QVQLVESGGGLVQAGGSLRLSCAASGSTSDENAMGWYRQAPGKERELVASITVSGGSTSYADSVKGRFTISRDNAKNTVYLQMNSLKPEDTAVYYCNTDFGQAHTLSWYEDMDYWGQGTQVTVSS” was “low polyreactivity”.
With “QLQLEESGGGLVQAGGSLRLSCAASGSTFSRNAMGWYRQAPGNERELVAAITIRGGSTSYADSVKGRFTISRENAKNTVYLQMNSLKPEDTAVYYCYRQSRNAGGYYWGQGTQVTVSS” the entry was “low polyreactivity”; with “QVQLEESGGGLVQAGGSLRLSCAASGRIFLWYAMGWYRQAPGKERELVAAISSNGGSTRYADSVKGRFTISRDNAKNTVYLQMNSLKPEDTALYYCNADVHWNRYPYGGNGYGYWGQGTQVTVSS”, “low polyreactivity”; with “QVQLVESGGGLVQAGGSLRLSCAASGITFDKYPMGRYRPAPGKDRELVAAISGSDGSTYYADSVKGRFTISRDNAKNSVYVQMNSLKPDDTAVYDCAAESVYAGTYEYDYWGQGTQVTVSS”, “low polyreactivity”.
For the sequence “QVQLVESGGALVQAGGSLRLSCAASGSIFKKYAMGWYRPAPGKERELVAAITRGTYYADSVKGRFTISRVNAKNTVYLQMNSLKPEDTAVYYCNREYWGRGYYRVRGEYDYWGQGTQFTVSS”, the “polyreactivity (PSR sort gate)” value was “low polyreactivity”.
The value for “QVQLVESGGGLVQAGGSLRLSCAASGSTFNRTPMGWYRQAPGKERELVAGISAGGRTYYTDSVKGRFTISRDNAKNTVYLLMNSLKPEDTAVYDCGTTSWWRCDLHTYLLTHYDYWGQGSQVTVSS” was “low polyreactivity”; that for “QVQLVESGGGLVQAGGSLRLSCAASGRIFSYYDIGWYRQAPGKERELVAAITGGGRTIYADSVKGRFTISRDNAKNTVYLQMNILKTEDTAVYYCNARARSRKFYYWGQGTQVTVSS” was “high polyreactivity”; that for “QVQLVESGGGLVQAGGSLRLSCAASGRTINRYAMGCYRHAPGKERELVAAINSVGSTYYADSVKGRFTISRDNAKYTVYLQMNSLKPEDTAVFYCNAVQGSRFGYWGEGTQVTVSS” was “high polyreactivity”.
With “QVQLVESGGGLVQAGGSLRLSCAASGLIFSYSALAWYRQAPGKERELVGSMSTSGGNTNYADSVKGRFTISRDNAKNTVYVQMNSVKPVDTAVYYCAAGIGKQYHTGYPTAGRKYGYWGQGTQVTVSS” the entry was “high polyreactivity”; with “QVQLVESGGGLVQAGCSLRLRCAASGYTFYDYAMGWYRPAPGKERELVAASSSSGGSTYYADSVKGRFTISRDNAKNTGYLQMNSVKPEDTALYYCAVRARRWRYNYWGQGTQVTVSS”, “high polyreactivity”.
The value for “QVQLQESGGGLVQAGGILRLSCAASGSIFHLHIMCWYRQEPGKERESVAAISNGTSTYYADSVKGRFTICRDNAKNTVYLQMNSPKPDDTAVYYCAALFLVSKHHHYWGEGTQVTVSS” was “low polyreactivity”.
On to “QVQLVESGGGLVQAGGSLRLSCAASGSIFYYNAMGWYRQAPGKERELVAAISSSGGSTYYADSVKGRFTISRDNAKNTVYLQMNSLKPEDTAVYYCAAKLRHWAHHTKYDYWGQGTQVSVSS”, for which the “polyreactivity (PSR sort gate)” value is on record as “low polyreactivity”.
The value for “QVQLVDSGGGLVQAGGSLRLICAASGRTFGTNALGWYRQAPGKEREFVAAIRWSDGSTYYADSVKGRFTISRDNAKNTVYLQMNSLKPEDTAVYYCAKEYYIVDVIHDYALYLYDYWGQGTQVTVSS” was “low polyreactivity”.
The value for “QVQLVESGGVLVQAGGSLRLSCAASGFTFQAYTMGWYRQAPVKERELVAAISRSGGRTYYADSVKGRFTISRDNAKNTVYLQMNSLKPEDTAVYYCAKRTTYSDDYWGQGTQVTVSS” was “high polyreactivity”; that for “QVQLVESGGGLVQAGGSLRLSCSASGRIFDKYTMGWYRQAPGKERELVATITRGGVSTYYADSVKGRFTISRDNAKNTVYLQMTSLKPEDTAVYYCNAVWRLRVRYGYWGQGTQVTVSS” was “high polyreactivity”; that for “QVQLVESGGGFVQAGGSLRLSCAASGRIFPEYSRGWYRQAPGKERELVASINSDGSTNYADSVKGRFTISRDNAKNTVYLQMNSLKPEDTAVYYCATEGSGTGIFISKFDYWGQGTQVTVSS” was “low polyreactivity”.
With “QVQLVESGGGLVQAGGSLRLSCAASGSIFTFYTMGWYRQAPGKERELVAAISQTGGRTYYADSVKGRFTISRDTAKNTVYLQMNSLKPEDTAVYYCDADYYYDISDWVYEYYYWGQGTQVTVSS” the entry was “high polyreactivity”.
“QVQLVESGGALVQAGGSLRLSCAASGITFYFYAMGWYIHAPGKEWELVAAIRSSGDSTYYADSVKGRFTISRDNAKNTVYLQMNSRKPEDTAVYYCAAYSHHQFSRSEYYYWGQGTQVTVSS”: the “polyreactivity (PSR sort gate)” value is reported as “low polyreactivity”.
The value for “QVQLVESGGGLVQAGGSLRLSCAASGFTIDKNVMGWYRQAPGKERELVAAISVRGGTTYYADSVKGRFTISRDNAKNTVYLQMNSLKPEDTAVYYCAARAYGPPARYDSWGQGTQVTVSS” was “low polyreactivity”.
The value for “QVQLVESGGGLVQAGGSLRLSCAASGSNIGWYAMGSYRQAPGKERELVAAISSSDGSTYYADSVKGRFTISRDNAKNTVYLQMNSLKPEDTAVYYCATDSDFTYAQYDYWGQGTQVTVSS” was “low polyreactivity”.
The value for “QVQLVESGGGLVQAGGSLRLSCAASGSIFRRYAMGWYRQAPGKERELVAVITTDGSTYYADSVKGRFTISRDNAKNTVYLQMNSLKPEDTAVYYCAADVRHYIWEYYYWGQGTQVTVSS” was “low polyreactivity”.
